PMC10047360

B1: LRP6: N486Q (protein)
parent chain: MGAVLRSLLACSFCVLLRAAPLLLYANRRDLRLVDATNGKENATIVVGGLEDAAAVDFVFSHGLIYWSDVSEEAIKRTEFNKTESVQNVVVSGLLSPDGLACDWLGEKLYWTDSETNRIEVSNLDGSLRKVLFWQELDQPRAIALDPSSGFMYWTDWGEVPKIERAGMDGSSRFIIINSEIYWPNGLTLDYEEQKLYWADAKLNFIHKSNLDGTNRQAVVKGSLPHPFALTLFEDILYWTDWSTHSILACNKYTGEGLREIHSDIFSPMDIHAFSQQRQPNATNPCGIDNGGCSHLCLMSPVKPFYQCACPTGVKLLENGKTCKDGATELLLLARRTDLRRISLDTPDFTDIVLQLEDIRHAIAIDYDPVEGYIYWTDDEVRAIRRSFIDGSGSQFVVTAQIAHPDGIAVDWVARNLYWTDTGTDRIEVTRLNGTMRKILISEDLEEPRAIVLDPMVGYMYWTDWGEIPKIERAALDGSDRVVLVNTSLGWPNGLALDYDEGKIYWGDAKTDKIEVMNTDGTGRRVLVEDKIPHIFGFTLLGDYVYWTDWQRRSIERVHKRSAEREVIIDQLPDLMGLKATNVHRVIGSNPCAEENGGCSHLCLYRPQGLRCACPIGFELISDMKTCIVPEAFLLFSRRADIRRISLETNNNNVAIPLTGVKEASALDFDVTDNRIYWTDISLKTISRAFMNGSALEHVVEFGLDYPEGMAVDWLGKNLYWADTGTNRIEVSKLDGQHRQVLVWKDLDSPRALALDPAEGFMYWTEWGGKPKIDRAAMDGSERTTLVPNVGRANGLTIDYAKRRLYWTDLDTNLIESSNMLGLNREVIADDLPHPFGLTQYQDYIYWTDWSRRSIERANKTSGQNRTIIQGHLDYVMDILVFHSSRQSGWNECASSNGHCSHLCLAVPVGGFVCGCPAHYSLNADNRTCSAPTTFLLFSQKSAINRMVIDEQQSPDIILPIHSLRNVRAIDYDPLDKQLYWIDSRQNMIRKAQEDGSQGFTVVVSSVPSQNLEIQPYDLSIDIYSRYIYWTCEATNVINVTRLDGRSVGVVLKGEQDRPRAVVVNPEKGYMYFTNLQERSPKIERAALDGTEREVLFFSGLSKPIALALDSRLGKLFWADSDLRRIESSDLSGANRIVLEDSNILQPVGLTVFENWLYWIDKQQQMIEKIDMTGREGRTKVQARIAQLSDIHAVKELNLQEYRQHPCAQDNGGCSHICLVKGDGTTRCSCPMHLVLLQDELSCGEPPTCSPQQFTCFTGEIDCIPVAWRCDGFTECEDHSDELNCPVCSESQFQCASGQCIDGALRCNGDANCQDKSDEKNCEVLCLIDQFRCANGQCIGKHKKCDHNVDCSDKSDELDCYPTEEPAPQATNTVGSVIGVIVTIFVSGTVYFICQRMLCPRMKGDGETMTNDYVVHGPASVPLGYVPHPSSLSGSLPGMSRGKSMISSLSIMGGSSGPPYDRAHVTGASSSSSSSTKGTYFPAILNPPPSPATERSHYTMEFGYSSNSPSTHRSYSYRPYSYRHFAPPTTPCSTDVCDSDYAPSRRMTSVATAKGYTSDLNYDSEPVPPPPTPRSQYLSAEENYESCPPSPYTERSYSHHLYPPPPSPCTDSS
B2: LRP6: N859Q (protein)
parent chain: MGAVLRSLLACSFCVLLRAAPLLLYANRRDLRLVDATNGKENATIVVGGLEDAAAVDFVFSHGLIYWSDVSEEAIKRTEFNKTESVQNVVVSGLLSPDGLACDWLGEKLYWTDSETNRIEVSNLDGSLRKVLFWQELDQPRAIALDPSSGFMYWTDWGEVPKIERAGMDGSSRFIIINSEIYWPNGLTLDYEEQKLYWADAKLNFIHKSNLDGTNRQAVVKGSLPHPFALTLFEDILYWTDWSTHSILACNKYTGEGLREIHSDIFSPMDIHAFSQQRQPNATNPCGIDNGGCSHLCLMSPVKPFYQCACPTGVKLLENGKTCKDGATELLLLARRTDLRRISLDTPDFTDIVLQLEDIRHAIAIDYDPVEGYIYWTDDEVRAIRRSFIDGSGSQFVVTAQIAHPDGIAVDWVARNLYWTDTGTDRIEVTRLNGTMRKILISEDLEEPRAIVLDPMVGYMYWTDWGEIPKIERAALDGSDRVVLVNTSLGWPNGLALDYDEGKIYWGDAKTDKIEVMNTDGTGRRVLVEDKIPHIFGFTLLGDYVYWTDWQRRSIERVHKRSAEREVIIDQLPDLMGLKATNVHRVIGSNPCAEENGGCSHLCLYRPQGLRCACPIGFELISDMKTCIVPEAFLLFSRRADIRRISLETNNNNVAIPLTGVKEASALDFDVTDNRIYWTDISLKTISRAFMNGSALEHVVEFGLDYPEGMAVDWLGKNLYWADTGTNRIEVSKLDGQHRQVLVWKDLDSPRALALDPAEGFMYWTEWGGKPKIDRAAMDGSERTTLVPNVGRANGLTIDYAKRRLYWTDLDTNLIESSNMLGLNREVIADDLPHPFGLTQYQDYIYWTDWSRRSIERANKTSGQNRTIIQGHLDYVMDILVFHSSRQSGWNECASSNGHCSHLCLAVPVGGFVCGCPAHYSLNADNRTCSAPTTFLLFSQKSAINRMVIDEQQSPDIILPIHSLRNVRAIDYDPLDKQLYWIDSRQNMIRKAQEDGSQGFTVVVSSVPSQNLEIQPYDLSIDIYSRYIYWTCEATNVINVTRLDGRSVGVVLKGEQDRPRAVVVNPEKGYMYFTNLQERSPKIERAALDGTEREVLFFSGLSKPIALALDSRLGKLFWADSDLRRIESSDLSGANRIVLEDSNILQPVGLTVFENWLYWIDKQQQMIEKIDMTGREGRTKVQARIAQLSDIHAVKELNLQEYRQHPCAQDNGGCSHICLVKGDGTTRCSCPMHLVLLQDELSCGEPPTCSPQQFTCFTGEIDCIPVAWRCDGFTECEDHSDELNCPVCSESQFQCASGQCIDGALRCNGDANCQDKSDEKNCEVLCLIDQFRCANGQCIGKHKKCDHNVDCSDKSDELDCYPTEEPAPQATNTVGSVIGVIVTIFVSGTVYFICQRMLCPRMKGDGETMTNDYVVHGPASVPLGYVPHPSSLSGSLPGMSRGKSMISSLSIMGGSSGPPYDRAHVTGASSSSSSSTKGTYFPAILNPPPSPATERSHYTMEFGYSSNSPSTHRSYSYRPYSYRHFAPPTTPCSTDVCDSDYAPSRRMTSVATAKGYTSDLNYDSEPVPPPPTPRSQYLSAEENYESCPPSPYTERSYSHHLYPPPPSPCTDSS
B3: LRP6: N926Q (protein)
parent chain: MGAVLRSLLACSFCVLLRAAPLLLYANRRDLRLVDATNGKENATIVVGGLEDAAAVDFVFSHGLIYWSDVSEEAIKRTEFNKTESVQNVVVSGLLSPDGLACDWLGEKLYWTDSETNRIEVSNLDGSLRKVLFWQELDQPRAIALDPSSGFMYWTDWGEVPKIERAGMDGSSRFIIINSEIYWPNGLTLDYEEQKLYWADAKLNFIHKSNLDGTNRQAVVKGSLPHPFALTLFEDILYWTDWSTHSILACNKYTGEGLREIHSDIFSPMDIHAFSQQRQPNATNPCGIDNGGCSHLCLMSPVKPFYQCACPTGVKLLENGKTCKDGATELLLLARRTDLRRISLDTPDFTDIVLQLEDIRHAIAIDYDPVEGYIYWTDDEVRAIRRSFIDGSGSQFVVTAQIAHPDGIAVDWVARNLYWTDTGTDRIEVTRLNGTMRKILISEDLEEPRAIVLDPMVGYMYWTDWGEIPKIERAALDGSDRVVLVNTSLGWPNGLALDYDEGKIYWGDAKTDKIEVMNTDGTGRRVLVEDKIPHIFGFTLLGDYVYWTDWQRRSIERVHKRSAEREVIIDQLPDLMGLKATNVHRVIGSNPCAEENGGCSHLCLYRPQGLRCACPIGFELISDMKTCIVPEAFLLFSRRADIRRISLETNNNNVAIPLTGVKEASALDFDVTDNRIYWTDISLKTISRAFMNGSALEHVVEFGLDYPEGMAVDWLGKNLYWADTGTNRIEVSKLDGQHRQVLVWKDLDSPRALALDPAEGFMYWTEWGGKPKIDRAAMDGSERTTLVPNVGRANGLTIDYAKRRLYWTDLDTNLIESSNMLGLNREVIADDLPHPFGLTQYQDYIYWTDWSRRSIERANKTSGQNRTIIQGHLDYVMDILVFHSSRQSGWNECASSNGHCSHLCLAVPVGGFVCGCPAHYSLNADNRTCSAPTTFLLFSQKSAINRMVIDEQQSPDIILPIHSLRNVRAIDYDPLDKQLYWIDSRQNMIRKAQEDGSQGFTVVVSSVPSQNLEIQPYDLSIDIYSRYIYWTCEATNVINVTRLDGRSVGVVLKGEQDRPRAVVVNPEKGYMYFTNLQERSPKIERAALDGTEREVLFFSGLSKPIALALDSRLGKLFWADSDLRRIESSDLSGANRIVLEDSNILQPVGLTVFENWLYWIDKQQQMIEKIDMTGREGRTKVQARIAQLSDIHAVKELNLQEYRQHPCAQDNGGCSHICLVKGDGTTRCSCPMHLVLLQDELSCGEPPTCSPQQFTCFTGEIDCIPVAWRCDGFTECEDHSDELNCPVCSESQFQCASGQCIDGALRCNGDANCQDKSDEKNCEVLCLIDQFRCANGQCIGKHKKCDHNVDCSDKSDELDCYPTEEPAPQATNTVGSVIGVIVTIFVSGTVYFICQRMLCPRMKGDGETMTNDYVVHGPASVPLGYVPHPSSLSGSLPGMSRGKSMISSLSIMGGSSGPPYDRAHVTGASSSSSSSTKGTYFPAILNPPPSPATERSHYTMEFGYSSNSPSTHRSYSYRPYSYRHFAPPTTPCSTDVCDSDYAPSRRMTSVATAKGYTSDLNYDSEPVPPPPTPRSQYLSAEENYESCPPSPYTERSYSHHLYPPPPSPCTDSS
B4: LRP6: N865Q (protein)
parent chain: MGAVLRSLLACSFCVLLRAAPLLLYANRRDLRLVDATNGKENATIVVGGLEDAAAVDFVFSHGLIYWSDVSEEAIKRTEFNKTESVQNVVVSGLLSPDGLACDWLGEKLYWTDSETNRIEVSNLDGSLRKVLFWQELDQPRAIALDPSSGFMYWTDWGEVPKIERAGMDGSSRFIIINSEIYWPNGLTLDYEEQKLYWADAKLNFIHKSNLDGTNRQAVVKGSLPHPFALTLFEDILYWTDWSTHSILACNKYTGEGLREIHSDIFSPMDIHAFSQQRQPNATNPCGIDNGGCSHLCLMSPVKPFYQCACPTGVKLLENGKTCKDGATELLLLARRTDLRRISLDTPDFTDIVLQLEDIRHAIAIDYDPVEGYIYWTDDEVRAIRRSFIDGSGSQFVVTAQIAHPDGIAVDWVARNLYWTDTGTDRIEVTRLNGTMRKILISEDLEEPRAIVLDPMVGYMYWTDWGEIPKIERAALDGSDRVVLVNTSLGWPNGLALDYDEGKIYWGDAKTDKIEVMNTDGTGRRVLVEDKIPHIFGFTLLGDYVYWTDWQRRSIERVHKRSAEREVIIDQLPDLMGLKATNVHRVIGSNPCAEENGGCSHLCLYRPQGLRCACPIGFELISDMKTCIVPEAFLLFSRRADIRRISLETNNNNVAIPLTGVKEASALDFDVTDNRIYWTDISLKTISRAFMNGSALEHVVEFGLDYPEGMAVDWLGKNLYWADTGTNRIEVSKLDGQHRQVLVWKDLDSPRALALDPAEGFMYWTEWGGKPKIDRAAMDGSERTTLVPNVGRANGLTIDYAKRRLYWTDLDTNLIESSNMLGLNREVIADDLPHPFGLTQYQDYIYWTDWSRRSIERANKTSGQNRTIIQGHLDYVMDILVFHSSRQSGWNECASSNGHCSHLCLAVPVGGFVCGCPAHYSLNADNRTCSAPTTFLLFSQKSAINRMVIDEQQSPDIILPIHSLRNVRAIDYDPLDKQLYWIDSRQNMIRKAQEDGSQGFTVVVSSVPSQNLEIQPYDLSIDIYSRYIYWTCEATNVINVTRLDGRSVGVVLKGEQDRPRAVVVNPEKGYMYFTNLQERSPKIERAALDGTEREVLFFSGLSKPIALALDSRLGKLFWADSDLRRIESSDLSGANRIVLEDSNILQPVGLTVFENWLYWIDKQQQMIEKIDMTGREGRTKVQARIAQLSDIHAVKELNLQEYRQHPCAQDNGGCSHICLVKGDGTTRCSCPMHLVLLQDELSCGEPPTCSPQQFTCFTGEIDCIPVAWRCDGFTECEDHSDELNCPVCSESQFQCASGQCIDGALRCNGDANCQDKSDEKNCEVLCLIDQFRCANGQCIGKHKKCDHNVDCSDKSDELDCYPTEEPAPQATNTVGSVIGVIVTIFVSGTVYFICQRMLCPRMKGDGETMTNDYVVHGPASVPLGYVPHPSSLSGSLPGMSRGKSMISSLSIMGGSSGPPYDRAHVTGASSSSSSSTKGTYFPAILNPPPSPATERSHYTMEFGYSSNSPSTHRSYSYRPYSYRHFAPPTTPCSTDVCDSDYAPSRRMTSVATAKGYTSDLNYDSEPVPPPPTPRSQYLSAEENYESCPPSPYTERSYSHHLYPPPPSPCTDSS

test: Western blot, mature upper band, B3GnT2-/- HEK293T; settings: glycan lost; control: wild-type LRP6

localisation_or_trafficking, no change:
B1, B2, B3, B4
